Test results reported in the DeepSol protein solubility set.

Test: soluble on expression in E. coli; label from the status in PepcDB or PDB records

Sequence | soluble on expression in E. coli
MGSDKIHHHHHHMSSNNRKKLLLMGRSGSGKSSMRSIIFSNYSAFDTRRLGATIDVEHSHLRFLGNMTLNLWDCGGQDVFMENYFTKQKDHIFQMVQVLIHVFDVESTEVLKDIEIFAKALKQLRKYSPDAKIFVLLHKMDLVQLDKREELFQIMMKNLSETSSEFGFPNLIGFPTSIWDESLYKAWSQIVCSLIPNMSNHQSNLKKFKEIMNALEIILFERTTFLVICSSNGENSNENHDSSDNNNVLLDPKRFEKISNIMKNFKQSCTKLKSGFKTLILNNNIYVSELSSNMVCFIVLKDMNIPQELVLENIKKAKEFFQ | not soluble
MEPAGPCGFCPAGEVQPARYTCPRCNAPYCSLRCYRTHGTCAENFY | soluble
MLPFVFNADDDGKRVQNEEGNYDPTDHQRQMEDYYKQYEEQRVANSFHNTTGRPDLVAMQARLAETEQAIHRLNEEKKQPPPGFPIMTTPATQPEISIPRSGENKSSRSPSWAREARRSRSRSRDRRGGRSRSRSPSRRRTSRDRRDDRSSRRRRGPIINQLS | soluble
MSLGEKASKVLITSVPKCGTHLLKQVVLGAPFYKRGKWISLRESIREQIDNCHDQTIMVGHLEYSEEIVRYLNEKGIRRLFIYRDPRDMLISYVFYVKEIAPKHELRNYFLHVLGSDEERIMKLITGFHYQEENLTYGDLTLHYQPFLPWIEDKGTLALRFEDLVSSNECKEQTISKIADYLWHGSTFDQYNKAVLKKRMLENIRPSHSGTFRKGVSGDWKNYFTAQHKSVFKEVAGQLLIDLGYEKDMDEGHHHHHH | soluble
MRTATSTSPATGTPAPVPSRTPDVTVTVIVYNDAGRLPRAVASALRQSHANIEVVISDDHSTDATEEVARELAAHDPRVVYLRLPENSGGCSAPRNRALEIARAPYLMFLDSDDELPERAVEVLLAAHRERDLDFAMGAVHRIREDGGRRTTWMPHLVAERRTLDGIEADPRLLFEHLSTSKMYARAFLDRHGLRFPEGIHYEDQLFSAQAYCLAKTFTVVPEPVYRWYIAPYADADSASISNQRHKLTNVRDRVHVQRLIDAFLAESGHEALREDKDFKFLKHDFRMYAGDLPYRDDTWLASFADLMNPYLDTLAEGAYARLPRAERVVLRLLRDRRLSDVRTAARGLGHDVAPRRVTPDEQSGRVYWGEEVPASPESRRELDLTDLDLDTRPFFTALLRHEITEITRGPGASVDLTVRTYDPALRLPVGPQRAVLHLSPGPRRLTVPFRLSPVRPGLFEGRVRLDLAAARLPLHGFAGTRHPVLRLRHRGRTHTGILLAPLAFPPLTARVPYRTGLTPHRVTLRPEGHNPGRLQITWQPVGTTAKILGPAARRLSTPRTRRAARLLSNILRLEHHHHHH | soluble
AFLNKHFAKKNHNISVDELSHALELTDKAELTEENNILEGIIRFGGETAKEVMTSRLDVVDLDIRTPFKDVIQCIIDNAYSRIPIYSGTRDNIKGVLYIKDLLPHLNKGDNFRWQSLIRPAYFVPETKMIDDLLRDFQANKIHIAIVVDEFGGTSGIVTMEDIIEEIVGEIHDEYDD | soluble
MDAVNKFSVENWYPHLRKHTFKSHFITLNYNDIHYLMGNIPPDYDSSKLESIFNKILSEFNNKEVFMRLSTRSPKDSKFLFEEASTIMSKDFVYWNENDNKHQQLVSFVASMLKAMKIKSGRKIIETIAQSPRVYNDLLALVSSSNQSDCTTNVILREWHDIRPDHEFRVFVSRRHRKESIVTAISQYFHFLYFDKSPADCFNFLDEEDKKAVIKKFENYVLKSVDPDVAKFLNFSSEQDDDESSDCIREYIVDLALIPVSQYHGEITDENIIEIGANTYVMVVIELNPFAPAATGSGLFNWKNDLMMLWGKASCDYPVFKYRTTPREDLQSVSLLPSNYESVIKSALIKRLETLEHHHHHH | not soluble
MGSSHHHHHHSSGLVPRGSHMSKFSYLQNGKASTNGVPHANGHHQQHQNGHSNGVARNGGTATDTLPVAYQQKAATSGPFHMPRTEHVGYTYDTLQEIATYLLERTELRPKVGIICGSGLGTLAEQLTDVDSFDYETIPHFPVSTVAGHVGRLVFGYLAGVPVMCMQGRFHHYEGYPLAKCAMPVRVMHLIGCTHLIATNAAGGANPKYRVGDIMLIKDHINLMGFAGNNPLQGPNDERFGPRFFGMANTYDPKLNQQAKVIARQIGIENELREGVYTCLGGPNFETVAEVKMLSMLGVDAIGMSTVHEIITARHCGMTCFAFSLITNMCTMSYEEEEEHCHDSIVGVGKNREKTLGEFVSRIVKHIHYEAKK | soluble
MRGWHHHHHHGIRMRARYPSVVDVYSVEQFRNIMSEDILTVAWFTAVWCGPCKTIERPMEKIAYEFPTVKFAKVDADNNSEIVSKCRVLQLPTFIIARSGKMLGHVIGANPGMLRQKLRDIIKDN | soluble
